14 sequences from the DeepSol protein solubility set can be followed below.

The series is described as follows: soluble on expression in E. coli; label from the status in PepcDB or PDB records.
Regarding “MGSDKIHHHHHHVVYRYGLALVTQPPLVSLEDLGYGHGPGQRLFDGLSLHIHSGECHCICGPTGSGKSSLLALIAGLNERPFAGVLECQSGVQVALVMQDPQVQLLRRTLGAEVAFGLENQGVAADDMPAAVKSALIRVGLELPLDTCIDTLSLGQKYRVMLASQLVLNPRVLLLDEPWAQLDDEGVGQLMVTLARLKADGMALIIAEHHPAAFAGLLDFHWLLDQGRLQPAAAGKASGALRADILCRWNPNGLGGRKCLTLAPCDLVLPTLAQGGRGRSGSKGFLSARFASAAPEGRSLFRLDTPLVLRTGDIRLLLGDNGSGKSTLLKALAGLQDGVKLPVKLDGRIPNTAAGEVALMLQRPSRQLFELTVVEELSFSIRRRGLDEAQVAWVQAFLAIEHLAAVSPHKLSWGQQHLVLLAALVITEPRLLLLDDPFAGLDEQSLMACIKLLNWYLSRGGCCVLACHRDVTGFEQVARWQLKDGLLTEVEASGQALAARDGAQTKPWELAAGGMGR”, the “soluble on expression in E. coli” value was “not soluble”. Regarding “MGSMDQSIAVKSPLTYAEALANTIMNTYTVEELPPANRWHYHQGVFLCGVLRLWEATGEKRYFEYAKAYADLLIDDNGNLLFRRDELDAIQAGLILFPLYEQTKDERYVKAAKRLRSLYGTLNRTSEGGFWHKDGYPYQMWLDGLYMGGPFALKYANLKQETELFDQVVLQESLMRKHTKDAKTGLFYHAWDEAKKMPWANEETGCSPEFWARSIGWYVMSLADMIEELPKKHPNRHVWKNTLQDMIKSICRYQDKETGLWYQIVDKGDRSDNWLESSGSCLYMYAIAKGINKGYLDRAYETTLLKAYQGLIQHKTETSEDGAFLVKDICVGTSAGFYDYYVSRERSTNDLHGAGAFILAMTELEPLFRSAGK”, the “soluble on expression in E. coli” value is given as “soluble”.

For the sequence “MGSSHHHHHHGGTGENLYFQGGSGMSRVPRPHIHQRISVEDIMKGNRRTLAKAITLAESSNPADSTRLGNLLREIHQMATVRTVPRFALSGSPGSGKSSLLDTLGYYLCEKKNMHVGVLAVDPSSTITHGSILGDKTRMEKLGTHLNSYIRPSPSGGHLGGVTSRAWEALEIFEAARFDVVFVETVGVGQSETQCKDLTDMMILLVPPASGDELQGIKKGVVEVADMVVVTKNDGRRKPLVQQTMSAYARAVMYTEEKQGFEKPVIAVSAEEGTNVPELWEAMLKMWNARLESGQIAHLRRAQSTKHFYNYFEMELLAKARRMTNLEMQNMAHRVWEHEMTPREAGDIMVLRTLREHLAADAAVQHDAGKRA”, the “soluble on expression in E. coli” value was “not soluble”. Next, “MGSSHHHHHHGGTGENLYFQGGSGSFRYTNHLVATLKHRLFLEAAHRQLVRQTFTGVCNGIEVTCTAYGSVVGIRMLDRAVWEPHYQVAADNKSEAAAATPTAPAAASPSRPSSSSSSSSTASGKTGIDLVKLSASIQAATWQAIQKVRAAKEETHSRSLRRNPQVLAEARLRDWYEQDANTLHPRPFDGLKNLEATEWMQAVRFGVPQPARYRRPNAAPKDLGEGGDGAHTDQKPRETITVLRDEDCDPANIPIGSVHPLFAPGLLQLEVDPNVATNGGSRVDEFFVLSEQRKEMRRDEEAFWERVELIRRSQLATIPKGGVKRGYADMADTVQDSIEEKVQLRFTQ”: “soluble”; “MGSSHHHHHHGKTIFVIVPTNEEQVAFLEALAKQDELNFDWQNPPTEPGQPVVILIPSDMVEWFLEMLKAKGIPFTVYVEEGGSENLYFQGGGGGGQRHAHDSAVGDKALTHKGRLRLSQNASGSAAGRCGSDDGNDSDQGGVDDDNGGAVGRRRRGAGGVLRRRRPQERGGNARRGGSDGDENSYDGDDAGGIPETDANGVKLTRLQRKKLAKEREREERRQAQEAALEAQRQRMDVNELRDAEAALREEELKAAEEAALQQLRRDKKKAEDEEYAKWVSHIGVEERGELGDEERERQTRMQSFLLDRAAQVQARARRSAAGAKSSPSEEECIHVLILQTAARDLKVSVEELVSTIEQLSQVDKVHGVFDDRGKYVFIAPEQFPLLAQFIRLRGRVSVQEFTRECNRVVMQS”: “soluble”. Next, “MGSSHHHHHHGKTIFVIVPTNEEQVAFLEALAKQDELNFDWQNPPTEPGQPVVILIPSDMVEWFLEMLKAKGIPFTVYVEEGGSENLYFQGGGGGGSDGAIVPREGSPQSISEELERRRSEARNLELRVSRKEAELQRAKEEQELLKEMRTVNEMIIRKKERQLSEGVANGVKISPESLAELNALGDALRLENLKTVELQREADVTSHQMEEVERSLENTEKQLLEAKRSTGWDVDRNSARTETAMESAFKEKKRLLSSLTSEQRTLSELSERLKQHAEECQAKVDAAEGMDERFAEAEEQLRQANARYRELIEEVMSNERIQKKTERVLTVANTQDKYKCIRQLEGEKRALHNDLSKLRETNVSNSRSILSLEVRLRQLETRLEAVNGFLREVFAEVEDDEPMDNVPEGAVEVPLALFEELSAALELSRETVVQRDDQLDEHDCKIEQMERKVVILQNAIASRAVSAQVQARGRDTQQRSMYANHSRRRSQLRTERDQLAVENTVLRNRLALL”: “not soluble”; “MGSSHHHHHHSQDPPAVHKLTKRIPLRRQVTVSAESSSSMNSNTPLVRITTRLSSTADTPMLAGVSEYELPEDPKWEFPRDKLTLGKPLGEGCFGQVVMAEAVGIDKDKPKEAVTVAVKMLKDDATEKDLSDLVSEMEMMKMIGKHKNIINLLGACTQDGPLYVIVEYASKGNLREYLRARRPPGMEYSYDINRVPEEQMTFKDLVSCTYQLARGMEYLASQKCIHRDLAARNVLVTENNVMKIADFGLARDINNIDYYKKTTNGRLPVKWMAPEALFDRVYTHQSDVWSFGVLMWEIFTLGGSPYPGIPVEELFKLLKEGHRMDKPANCTNELYMMMRDCWHAVPSQRPTFKQLVEDLDRILTLTTNEE”: “soluble”.

For the sequence “MGSSHHHHHHSSGLVPRGSHMASGTSKDASGGSSSGKEVLEFYHGYHHSEDEWPVAKTMRDLYDKFAEEHKDSGVEFKPTPVNGDLKDIMNNKVASGEFPDVIDLAGNAVSLAAIEQKLVLDLKPYIDSNKLEKNVGLNYKQNQKDGKIYTVHEQLFTMGLWYNKDIFAKAGAKTPDQWNTWDDFTQAMASIRKQDGVYAFGAGEPSIRLFNTVLGTTENGRKLLDKPLTKEGIESKEFADALKMVMKEIQANGSKNAGGDANAYSKDFQEGKSAVFFNGVWASGEMSKNPSLAPGIYPAGVAISSSGGGITISSKMSEAKQKLALEFLKYMTSDDVQKVIFEKVGANPSNENVNVKELSEKSSEATTKILGQAITQVKNAKAVVPTVSDVWGGDVHTAIINALTESAAENVDVDQKVKSTQDVLKSLIG”, the “soluble on expression in E. coli” value is on record as “soluble”. Then “MGSSHHHHHHSSGLVPRGSHMASMTGGQQMGRGSMIIDDLLTKKIIKPRPLNSHKGTFGRVLLIGGNYPYGGAIIMAALACVNSGAGLVTVATHKDNITALHSHLPEAMAFDMVEKDRLSEQITAADVVLMGPGLAEDDLAQTTFDVVWQAIEPKQTLIIDGSAINLLAKRKPAIWPTKQIILTPHQKEWERLSGLTIPEQIEAATQTALAHFPKETILVAKSHQTKIYQGQKIGHIQVGGPYQATGGMGDTLAGMIAGFVAQFHTDRFEVAAAAVFLHSYIADQLSKEAYVVLPTRISAEITRVMKEMSE”, with “soluble”.

For the sequence “MGSSHHHHHHSSGLVPRGSHMIRNRVMNSVVNKYLLHNRSIMFKNDQDVERFFYKREIENRKKHKQPSTLNVKANLEKLSLDDMQVFRFNFRHQIDKKILYIHGGFNALQPSPFHWRLLDKITLSTLYEVVLPIYPKTPEFHIDDTFQAIQRVYDQLVSEVGHQNVVVMGDGSGGALALSFVQSLLDNQQPLPNKLYLISPILDATLSNKDISDALIEQDAVLSQFGVNEIMKKWANGLPLTDKRISPINGTIEGLPPVYMFGGGREMTHPDMKLFEQMMLQHHQYIEFYDYPKMVHDFPIYPIRQSHKAIKQIAKSIDEDVTQNN”, the “soluble on expression in E. coli” value is listed as “soluble”.

Regarding “MGSSHHHHHHSSGLVPRGSHMKAMNKVWVIGDASVDLVPEKQNSYLKCPGGASANVGVCVARLGGECGFIGCLGDDDAGRFLRQVFQDNGVDVTFLRLDADLTSAVLIVNLTADGERSFTYLVHPGADTYVSPQDLPPFRQYEWFYFSSIGLTDRPAREACLEGARRMREAGGYVLFDVNLRSKMWGNTDEIPELIARSAALASICKVSADELCQLSGASHWQDARYYLRDLGCDTTIISLGADGALLITAEGEFHFPAPRVDVVDTTGAGDAFVGGLLFTLSRANCWDHALLAEAISNANACGAMAVTAKGAMTALPFPDQLNTFLSSHSLAQAMTVK”, the “soluble on expression in E. coli” value is given as “soluble”.

Consider “MGSSHHHHHHSSGLVPRGSHMQQKLTSPDNNLVMTFQVDSKGAPTYELTYKNKVVIKPSTLGLELKKEDNTRTDFDWVDRRDLTKLDSKTNLYDGFEVKDTQTATFDETWQPVWGEEKEIRNHYNELAVTLYQPMNDRSIVIRFRLFNDGLGFRYEFPQQKSLNYFVIKEEHSQFGMNGDHIAFWIPGDYDTQEYDYTISRLSEIRGLMKEAITPNSSQTPFSQTGVQTALMMKTDDGLYINLHEAALVDYSCMHLNLDDKNMVFESWLTPDAKGDKGYMQTPCNTPWRTIIVSDDARNILASRITLNLNEPCKIADAASWVKPVKYIGVWWDMITGKGSWAYTDELTSVKLGETDYSKTKPNGKHSANTANVKRYIDFAAAHGFDAVLVEGWNEGWEDWFGNSKDYVFDFVTPYPDFDVKEIHRYAARKGIKMMMHHETSASVRNYERHMDKAYQFMADNGYNSVKSGYVGNIIPRGEHHYGQWMNNHYLYAVKKAADYKIMVNAHEATRPTGICRTYPNLIGNESARGTEYESFGGNKVYHTTILPFTRLVGGPMDYTPGIFETHCNKMNPANNSQVRSTIARQLALYVTMYSPLQMAADIPENYERFMDAFQFIKDVALDWDETNYLEAEPGEYITIARKAKDTDDWYVGCTAGENGHTSKLVFDFLTPGKQYIATVYADAKDADWKENPQAYTIKKGILTNKSKLNLHAANGGGYAISIKEVKDKSEAKGLKRL”, for which the “soluble on expression in E. coli” value is recorded as “soluble”. Then “MGSSHHHHHHSSGLVPRGSHMTVYTASVTAPVNIATLKYWGKRDTKLNLPTNSSISVTLSQDDLRTLTSAATAPEFERDTLWLNGEPHSIDNERTQNCLRDLRQLRKEMESKDASLPTLSQWKLHIVSENNFPTAAGLASSAAGFAALVSAIAKLYQLPQSTSEISRIARKGSGSACRSLFGGYVAWEMGKAEDGHDSMAVQIADSSDWPQMKACVLVVSDIKKDVSSTQGMQLTVATSELFKERIEHVVPKRFEVMRKAIVEKDFATFAKETMMDSNSFHATCLDSFPPIFYMNDTSKRIISWCHTINQFYGETIVAYTFDAGPNAVLYYLAENESKLFAFIYKLFGSVPGWDKKFTTEQLEAFNHQFESSNFTARELDLELQKDVARVILTQVGSGPQETNESLIDAKTGLPKE”, with “soluble”; and “MGSSHHHHHHSSGLVPRGSHWGSPNSSSVDKLMDTIVAVATPPGKGAIAILRLSGPDSWKIVQKHLRTRSKIVPRKAIHGWIHENGEDVDEVVVVFYKSPKSYTGEDMVEVMCHGGPLVVKKLLDLFLKSGARMAEPGEFTKRAFLNGKMDLTSAEAVRDLIEAKSETSLKLSLRNLKGGLRDFVDSLRRELIEVLAEIRVELDYPDEIETNTGEVVTRLERIKEKLTEELKKADAGILLNRGLRMVIVGKPNVGKSTLLNRLLNEDRAIVTDIPGTTRDVISEEIVIRGILFRIVDTAGVRSETNDLVERLGIERTLQEIEKADIVLFVLDASSPLDEEDRKILERIKNKRYLVVINKVDVVEKINEEEIKNKLGTDRHMVKISALKGEGLEKLEESIYRETQEIFERGSDSLITNLRQKQLLENVKGHLEDAIKSLKEGMPVDMASIDLERALNLLDEVTGRSFREDLLDTIFSNFCVGK”, with “soluble”.
